Data published in patent US20190338026A1 (University of Texas, published 2019).
Substitutions are numbered along the chain they refer to. Each block holds one binder with its values, some of them ahead of it.

Legend:
[1] = molecular target: T1, human LAIR1 extracellular domain (ECD) protein with 6 HIS tag at the C-terminus (human, UniProt Q6GTX8 22-165); assay: ELISA, LAIR1 ECD coated
T1 construct: Produced recombinantly in HEK293 cells; the whole entry is named here; also called LAIR1 ECD; LAIR1-ECD
T1 chain: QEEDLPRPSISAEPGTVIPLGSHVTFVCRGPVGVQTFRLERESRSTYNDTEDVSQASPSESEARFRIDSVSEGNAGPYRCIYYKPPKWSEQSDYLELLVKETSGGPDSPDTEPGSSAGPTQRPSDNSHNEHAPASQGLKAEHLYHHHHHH
Protocol: (§1) The inventors then used a concentration titration (0-10 μg/ml) by ELISA to determine the LAIR1 monoclonal antibody (mAbs) binding to human LAIR1 ECD. […] For FIGS. 2-39, X axis indicates the antibody concentrations and Y-axis is binding signals, measured as OD (450 nm). To perform the ELISA assay, LAIR1 ECD recombinant protein was coated on high absorption 96-well plates. Serial diluted (3-fold) LAIR1 mAb was added to the coated/blocked plates and detected using goat anti-rabbit F(ab′)2 conjugated HRP as secondary antibody. All assays were repeated 3 times and the titration curves were fitted using 4-parameter fitting curve using the GraphPad software for EC₅₀ estimation.
(§2) Serial dilutions of the LAIR1 monoclonal antibodies (IgGs or scFvs fragments), starting from […] and 3-fold titration down for 12 steps, were added to the 96-well plate for binding by incubating 45 minutes at 37° C. with a cover on the assay plate. Then the plates were washed with PBS containing Tween 20 (0.05% concentration) for 3 times and PBS one time. […] Detection was conducted by adding HRP substrate, TMB (ThermoFisher) for 10 minutes, and stopped by adding 50 μl/well of 2N H2504. The plates were read for absorbance at 450 nm using a plate reader (SpectraMax M4, Molecular Devices). Data were collected and graphed using a 4-parameter fitting curve with GrapPad Prism 7 software for EC₅₀ calculation.

[2] = molecular target: T2, LAIR1 on LAIR1 reporter cells (human, UniProt Q6GTX8 22-165, limits assumed); assay: cell-based or functional assay
T2 chain: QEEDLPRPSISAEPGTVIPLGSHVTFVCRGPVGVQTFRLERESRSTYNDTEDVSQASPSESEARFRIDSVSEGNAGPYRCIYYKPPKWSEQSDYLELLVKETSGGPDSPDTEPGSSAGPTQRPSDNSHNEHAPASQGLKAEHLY

[3] = molecular target: T1, human LAIR1 extracellular domain (ECD) …; assay: ELISA, LAIR1 ECD coated, mAb titrated, anti-rabbit HRP
Protocol: as §1, §2

EC50 (read off the curve) [1]: ~10 ng/mL
GFP+% of LAIR1 reporter cells, collagen I coated, soluble Ab [2]: 6.5%
EC50 [3]: 0.1 nM
B1: LA-60 (antibody, V domains shown)
VH: EQSLESGGGLVQPEGSLTLTCTASGFSFSNSYYMCWVRQAPGKGLEWIGCIYTGSSSGTYYASWAEGRFTISKTPSTTVTLQMTSLTAADTATYFCSRKLTNFNGAYLDLWGPGTLVTVSS
VL: ELVLTQTPASVEAAVGGTVTIKCQASQSIYSYLAWYQQKPGQPPKVLIYKASTLASGVPSRFKGSGSGTEFTLTISDLECADAATYYCQNNNGGSDNTFGGGTEVVVK
notes: Rabbit monoclonal IgG; also called mAb LA-60

EC50 (read off the curve) [1]: ~10 ng/mL
EC50 [3]: 0.08 nM
B2: LA-145 (antibody, V domains shown)
VH: SSSVEESGGRLVTPGTPLTLTCTVSGFSLSSYVMGWVRQAPGKGLEWIGTISIRSNTYYASWAKGRFTISKTSTTVDLKITSPITEDTATYFCARGAGNVYYSDYYFSLWGPGTLVTISS
VL: ELVMTQPPASVSAAVGGTVTINCQASQNIYSNLAWYQQRPGQPPKLLIYKASTLASGVPSRFKGSGSGTDYTLTITDLECADAATYYCQTYYNMMDDGAAFGGGTEVEIK
notes: Rabbit monoclonal IgG

EC50 (read off the curve) [1]: ~10 ng/mL
EC50 [3]: 0.09 nM
B3: LA-245 (antibody, V domains shown)
VH: QSLQESRGRLVTPGTPLTLTCTASGFSLSSYHMGWVRQAPGKGLEWIGYIHTNRNTWYANWAKGRFTISKTSSTTVNLRMTSPTTEDTATYFCARGSYGDYNFLFDVWGPGTLVTVSS
VL: ELVMTQTPASVSEPVGGTVTINCQASEDISIYLAWYQQKPGQPPKLLIYDASTLESGVPSRFSGSGSRTQFTLTISDLECADAATYYCQQYSTTDTNNLFGGGTEVEIK
notes: Rabbit monoclonal IgG

EC50 (read off the curve) [1]: ~10 ng/mL
EC50 [3]: 0.02 nM
B4: LA-29 (antibody, V domains shown)
VH: SSSVEESGGGLVQPEGSLTLTCTASGFSFSSRYYMCWVRQAPGKGLEWIACIYNGDGSRYYASWAKGRFTISKTSSTTVTLQMTSLTAADTATYFCVRDRHTAFVDYGDDNLWGPGTLVTVSS
VL: ELDLTQTPASVSEPVGGTVTIKCQASQSIYSNLAWYQQKPGQPPKLLIYRASTLASGVPSRFKGSGAGTEFTLTISDLECADAATYYCQCTYDGISYVPSSFGGGTEVVVK
notes: Rabbit monoclonal IgG; also called mAb LA-29

EC50 (read off the curve) [1]: ~20 ng/mL
EC50 [3]: 0.05 nM
B5: LA-61 (antibody, V domains shown)
VH: EQLMEESGGRLVTPGTPLTLTCTASGFDVNAYHMGWVRQAPGKGLEWIGYIYSGGTIFYANWAKGRFTLSRTSTTVDLKITSPTTEDTATYFCARGGYDNYNILYDLWGPGTLVTISS
VL: ELDMTQTPASVSEPVGGTVTIKCQASQSISVYLAWYQQKPGQPPKLLIYDASTLTSGVPSRFKGSGSGTEFTLTISDLECADAAAYYCQSYDGTPTAAFGGGTEVVVK
notes: Rabbit monoclonal IgG; also called mAb LA-61

EC50 [3]: 4.21 nM
B6: LA-258-1 (antibody, V domains shown)
VH: QSVKESGGDLVKPEGSLTLTCKASGFSFSNSYYMCWVRQAPGKGLEWIACIYTGSTSGTYYASWVNGRFTISKTPSTTVTLQMTSLTVADTATYFCSRKLTNFNGAYLDLWGPGTLVTISS
VL: ELVLTQTPASVEAAVGGTVTINCQASQSISNLLAWYQQKPGQRPKLLIYRASTLASGVSSRFKGSGSGTEYTLTISGVQCDDAATYYCQQGYTSNNVDNAFGGGTEVEIK
notes: Rabbit monoclonal IgG

EC50 (read off the curve) [1]: ~7 ng/mL
EC50 [3]: 0.05 nM
B7: LA-56 (antibody, V domains shown)
VH: SSSVEESGGRLVTPGTPLTLTCTVSGFSLSAYWVGWVRQAPGKGLEYIGFVDVDIYYASWARGRFTISKTSSTTVDLILTSPTMEDTATYFCVRMSYNAMDLWGPGTLVTISS
VL: ELDLTQTASSVSAAVGDTVTINCQSSESVYKDNFLSWYQQKPGQPPKLLIYRASTLASGVPSRFKGSGSGSQFTLTISDVVCDDAATYYCSGYRNSHDGLPFGGGTEVEIK
notes: Rabbit monoclonal IgG; also called mAb LA-56

EC50 (read off the curve) [1]: ~10 ng/mL
EC50 [3]: 0.07 nM
B8: LA-6 (antibody, V domains shown)
VH: EQSVEESGGDLVKPEGSLTLTCTASGFSFSSGYYMCWVRQAPGKGLEWIGCIHSSSGNIYYASWAKGRFTISKTSSTTVDLQLTSLTAADTATYFCARDSEVYGWNPNDLWGPGTLVTVSS
VL: ELDMTQTPASVSEPVGGTVTIKCQASQSISSYLAWYQQKPGQRPKLLIYGASNLASGVSSRFKGSRSGTQFTLTITDLECDDAATYYCQCSYYGNSYVGGAFGGGTEVVVK
notes: Rabbit monoclonal IgG; also called mAb LA-6

EC50 (read off the curve) [1]: ~10 ng/mL
EC50 [3]: 0.08 nM
B9: LA-89 (antibody, V domains shown)
VH: QSVKESGGRLVTPGTPLTLTCTVSGFSLSSNAISWVRQAPGKGLEWIGYIYGDGRTFYASWAKGRFTISKTSTTVDLKMTSLTSEDTATYFCIKSLHLWGPGTLVTISS
VL: ELDMTQTASPVSAAVGGTVTINCQSSQSVYNKNQLFWYQQKPGQPPKLLIYDASTLASGVPSRYKGSGSGTQFTLTISGVQCDDAATYYCLGEYTGNIYTFGEGTEVVVK
notes: Rabbit monoclonal IgG; also called mAb LA-89

EC50 (read off the curve) [1]: ~10 ng/mL
EC50 [3]: 0.05 nM
B10: LA-141 (antibody, V domains shown)
VH: QSLEESGGRLVKPDESLTLTCTVSGFSLSSNAMSWVRQAPGKGLEWIGYIYGDGRTFYANWAKGRITISRTSTTVDLKMTSLRTEDTATYFCVKSLILWGPGTLVTISS
VL: B9 VL with A8P, Q27H, K32A, F36Y, Y64F, T95S, T100V, V108E, V109I, K110N
notes: Rabbit monoclonal IgG

EC50 (read off the curve) [1]: ~10 ng/mL
EC50 [3]: 0.09 nM
B11: LA-111 (antibody, V domains shown)
VH: EQSVEESGGGLVAPGGSLTLTCTVSGFSLSNYHMGWVRQAPGKGLEWIGYIYTHGTTFYASWAKGRFTISKTSTTVDLKMTRLTTGDTATYFCARGGYADYNILYNLWGPGTLVTISS
VL: ELVLTQTPASVEAAVGGTVTINCQASQSISSYLAWYQQKPGQPPKLLIYDASDLASGVPSRFKGSRSGTEFTFTISDLECADAATYYCQTYDSSTTAAFGGGTEVEIK
notes: Rabbit monoclonal IgG

EC50 (read off the curve) [1]: ~30 ng/mL
EC50 [3]: 0.23 nM
B12: LA-259-1 (antibody, V domains shown)
VH: QSVKESGGRLVTPGTPLTLTCTASGFSLYKYNIQWVRQAPGKGLEYIGASTYAGYTYYASWAKGRVTISRTSTTVDLKMTSPTTEDTATYFCARHIDGDYSGYALWGPGTLVTISS
VL: ELVLTQTPASVSAAVGGTVTIKCQASQSIGTWFAWYQQKPGQSPKLLIYGPSKLASGVPPRFKGSGSGTEFTLTISDLECADAATYYCQSTYFGVDYLGGTFGGGTEVVVK
notes: Rabbit monoclonal IgG

EC50 (read off the curve) [1]: ~40 ng/mL
EC50 [3]: 0.28 nM
B13: LA-142-2 (antibody, V domains shown)
VH: B12 VH with Q1A, S2A, I114V
VL: ELVLTQTPASVSAAVGGTVTIKCQASQSIGTWFAWYQQKPGQSPKLLIYGASNLASGVSSRFKGIRSGTEYTLTISDLECADAATYYCQCSDVGNTYGAAFGGGTEVEIN
notes: Rabbit monoclonal IgG

EC50 (read off the curve) [1]: ~40 ng/mL
EC50 [3]: 0.25 nM
B14: LA-142-1 (antibody, V domains shown)
VH: B12 VH with Q1A, S2A, I114V
VL: B12 VL with V109E, V110I
notes: Rabbit monoclonal IgG

EC50 (read off the curve) [1]: ~10 ng/mL
GFP+% of LAIR1 reporter cells, collagen I coated, soluble Ab [2]: 1.1%
EC50 [3]: 0.1 nM
B15: LA-82 (antibody, V domains shown)
VH: EQSLEESGGDLVKPGASLTLACTASGFSFSDGYYMCWVRQAPGKGLEWIGCIHSSSGSIYYASWAKGRFTISKTSSTMVTLQMSSLTAADTATYFCARDSESYGYNPCELWGPGTLVTISS
VL: ELVMTQTPASVSEAVGGTVTIKCQASQTISNYLAWYQQKPGQRPKLLIYAASSLASGVSSRFRGSRSGTEYTLTITDLECDDAATYYCQCTYYGTTYIGGAFGGGTEVEIK
notes: Rabbit monoclonal IgG; also called mAb LA-82

EC50 (read off the curve) [1]: ~20 ng/mL
EC50 [3]: 0.16 nM
B16: LA-199 (antibody, V domains shown)
VH: EQSVEESGGRLVTPGTPLTLTCTASGFSLSSYAMIWVRQAPGEGLEWIGDIYAGGGATYYASWAKGRFTISKTSTTVDLKITSPTTEDTATYFCARAYGSGYDLWGPGTLVTVSS
VL: ELDLTQTPASVEVAVGGTVTIKCQASQSISSYLSWYQQKPGQPPKLLIYYASTMASGVPSRFSGSGSGTQFTLTISDLECADAATYYCQQGDSRSNVDNIFGGGTEVVVK
notes: Rabbit monoclonal IgG

EC50 (read off the curve) [1]: ~10 ng/mL
EC50 [3]: 0.09 nM
B17: LA-171 (antibody, V domains shown)
VH: EQSVEESGGRLVTPGGSLTLTCTVSGFSLSSYNMGWVRQAPGKGLEYIGWISLGGNTYYASWVNGRFTISKTSTTVELKISSPTTEDTATYFCARGAGSLYYGDYYFTLWGPGTLVTISS
VL: ELVLTQTPSSVSAAVGGTVTIKCQASQSIYSNLAWYQQKPGQPPKLLIYKASNLASGVPSRFKGSGSGTEYTLTISDLECADAATYYCQNYYGINDYGAAFGGGTEVVVK
notes: Rabbit monoclonal IgG
